Experimental data from the domain aggregation screens of Martell et al. (2025).

Assay: soluble fraction after stress (log2 fold change); higher = more stays soluble; pooled small domains, quantitative proteomics
Details: stress: 50 degC
Method in brief: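 The stress applied to every library was 50°C. These custom libraries of small protein domains were pooled and measured at high throughput with quantitative proteomics as the read-out. Aggregation propensity is expressed as the base-two logarithm of the fold change in how much of each protein remains soluble. The higher the value, the more of that protein stays in solution.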

Row | Sequence | soluble fraction (log2)
1 | HMSEVPAAVLVTGGSINLREAPSTDATIIDVAQVGEKMTVLAEKNSWYQVSRGGRNVWVASWVVDPLT | 0.208
2 | HMSEVTYQETLRLLRRAIDVLPQQSRQIILLGLSGKNNNEVAEMLGISVNTVKTLKKGAYKSLRNSL | -1.66
3 | HMSEYITEGWLREKFGLGWGTEVHLPLDSRLTPAAHQLLEERKIVIKYIDAEGRVFNPDKSGEEAPVQ | 0.0587
4 | HMSEYVIVTGEKVNLRVGPGMDYEIAGQVVKGDKLELLASEGDWSKVKTGSGSIYYISSSLVQKA | -0.238
5 | HMSFDGFSDRLKSVLNSGKYTQKEAAEKINISEYSFTKYLNGRIPQTEILYKIARLYNKSMEWLLTGKDPI | -2.01
6 | HMSFGWELYKGKEGIADTDLHPSGWIRIADKRVFAVSEGEFIEKGLEIIVLSVDGNRIVVRELK | -1.39
7 | HMSFGWETLEGKEGVTDTDLHPSGWVKVGDEKIFVVSQGEFLGKGTDIVVVSVDGNRVVVKELI | -0.694
8 | HMSFKQARFMMDAANGKALAWLYSHAEVLDRKDQGENIEIHVMISPADLSRFVNAFGYQPVQS | -0.2
9 | HMSFMFEISVIRSQYNMQDPESKTGFYNAIAKKLLEFPEKLERDNYTEAVAREYMIPETDLKNLVNSMGG | -2.17
10 | HMSFNGTILSNYQKTYPNLAKFTYDQANDALVYEGNFIKLNGYGLSRIDPVFFNMNPDEIFIFIKNG | -3.51
11 | HMSFNTNENKNLLWELMNKHNLFKDIDNQHYQEVQKLFEEEIVFISNNNKSLDLVEQNKKFLSSIITKLNK | -1.41
12 | HMSFPQVELNTNKGRIVLELNSEKAPKTVANFLEYVRDGFYDGVIFHRVIDGFMIQGGGFDENFKEKA | -0.229
13 | HMSFSPYLVRVSITDLNIRKGPGTNYAKTGKFTGKGVFTIVEMQTGKGSDTGWGRLKSGAGWISLDYTEKI | -3
14 | HMSFSQNIGKRIREERLRLNLTQEKLAEDVNLSMAYIGQVERGDRSLTLDNLIIVAKRLGVTIDYLLS | -1.25
15 | HMSFTSQSVLIEIVRGTTQLTPLAAAVGANKREVVLAVHRLKQRGLVVSAGLGQYAATEAGRAFLTAGREV | -2.76
16 | HMSFYSVVISQDGSMLVAENRNEIYSNEELLELASEVNEKTGTIGTIGSLMYYKADKGGYTLITFLDNS | -3.02
17 | HMSGALDTVVGIRMLKLLSTPIEKSKAFQVGIINKDGKKLRDPTSGERQHYTFLNRFVFKVQYALMRS | -0.211
18 | HMSGDYRPLYPNLPESEKSEAFNLLAGSALPARLDDRTGDIMVPADRYYEARMILANAGFAD | 0.0141
19 | HMSGEMGIIVAKRLPIRSEPDELATRAFVLKAGTRVKIVKHLNGWLEIVHDGKAGYVQDLEVYVRVIG | -0.524
20 | HMSGEPVKSTLPGNVFKILVAVGDSVKKGQRMFVLEAMKMEIDVNAPKDGLVTSIEVQQGQTVANGQILAK | 0.0741
21 | HMSGIESIVIPLKGLDFDMISSTLTPQLKQAIKYDKQSDSIILVGTNAKVNIIAKQVNAMVEVYKLKT | -0.444
22 | HMSGIGTTIKMLRENKNISQEELGNVLGVSDKTISSWEINRTEPKMGIVQLLADYFGVSTDYLIKG | -0.146
23 | HMSGILINGELYKPGEQMSLKQRLSIQARIQMQGEDTVKPEMLKDFYNSGGPLSKEESSEYMKSQN | -0.153
24 | HMSGIQNNFITRLKKVLAPTIGIAEEISDLLNISIDSAYRRIRGETDFTFEEIYIITRKHKISIDEIYG | -3.58
25 | HMSGIVPAAPPLRPDLDIKWHTGDKVRHAKWGEGTIVSVKGEGEETELKIAFPGQGIRPFMQKYAPITR | 0.163
26 | HMSGLEDIKKKILEDAGIKKGSVKFVKVDKDYDDGIWKYEIDFVYDGKEYEYEIEVETGKILSRKTEKSD | -0.317
27 | HMSGLVPAIGTKGEEGYIRESDIPGSNVKNPEEALAYMEWLKTQPSELLIPLYDEQGNVIGQFAVS | 0.07
28 | HMSGMEKLAIQEIEKEIKSFVKGDILIELTGKNRATAYVSEKNVGALIGKKGERINSIEKRLGVGIDVRPY | 0.00444

Row | Sequence | soluble fraction (log2)
29 | HMSGMNSDHRVNGNIHTFLIQHDLGTKWSVFTEQLLKQVFRSFLPDKELNFQTTDSTVILKVSLGSDFNEH | -0.0505
30 | HMSGPAEDLLAIEGMDKELAYELAARGIRTRDELADQSLDELEAVPGLDPVRAGQLIMAARAHLFENAGQ | -0.124
31 | HMSGRSVSYSEFMSRVEAGQVSSVTLDGERVEVTGSDGSRYVTIAPSDATLTDKLVAKGVEVRADP | 0.102
32 | HMSGSKEQQIVILNNILERQLQAFGLQGNREFPMVTLKNIYNSLSKIIENAGLKNVENYFVNPEQGKQM | -0.256
33 | HMSGTFIGGELVKPGEPLTPMQRAAITMGLQMGNTYSPEIMEKYNNAGGSPSKEEFENYQKNKS | 0.101
34 | HMSHGFFELKTTQKEALIKLLDSHPNFTHTKTEADLTTAFLKLPMDAEQFNKLLFTNGIVLSHLVKRK | -0.668
35 | HMSHGYVEMQAKDDQVLLAALKNHPWFEKVSIDEETGLTKAILTQPIEAEELNSMLFEKGIVLSHLVKRK | 0.234
36 | HMSHISLGQRYKIEGYLQINLKRTQIAKEIGLPKKTVNQEIKRNSNPQTGIYKAEEAHQLYLDRMQKKRK | -0.131
37 | HMSHKYKLTVPETGEGTRVDKFLSSALTELSRTRLKSLIEEGQVTLGGVKLTNPSHRVKSGDELNIEIPVP | 0.146
38 | HMSHPNAPLTPEGRRRLAVLIVEDGWTIRRAAERFQVSPATASKWARRYRAGESLTDRSSRP | -1.58
39 | HMSHSDMEEWTDAVRSRRKKLGLTQVQIARRLGVTSHHFSQIESGRTIPSASLQIEIDRLLKNWND | -0.963
40 | HMSHSVLIDISQLRIGMYIQLDVGWMHHPFPVSSFRVASLEQIEALRTLNLAQVRYFPAKSDPV | -3.6
41 | HMSIAEMSGARKSAILLLALDEDSAAEIFKYLSAGEVQEISMEMAKLNQVSHDDMKAVLEAFHKETEEFV | -0.542
42 | HMSIAKIIGDRIRAYRNQKGWSQEYLAEKADVHHTYIGQLERGEKNATIESISKIAGALGVSLSRLFEN | -0.0998
43 | HMSIEHVPGYTTLSKREQEIVHALLTRKTPEELADDLSISINTLNKHISHIYHKLGIRGRMQLFDYA | -0.284
44 | HMSIEIKTIDVKHADLFQLQDILRNLYPELNIVPDQRNNKLILQGKRELLVEAERLTLQLDTE | 0.0556
45 | HMSIESPEEFNAKFPPGSEIYATNIQKNAIVQSPANAKGDVEILANSMRLTINFRFISKRDT | 0.0469
46 | HMSIGPQMAGRRVLSGDLIARLEAFEGTVVLGRGVAREDALLIATQAGHVRWEPASRRLWVDSTA | -0.458
47 | HMSIHPRDKADLGTALSKWKKGALDDKQLELEVARVFMRTYGKKLEGQALNKAVAAWVAALTQSKK | 0.506
48 | HMSINIDEEKKILGPNADQIIKGITTWGQGLVSKGIWSDADFEEFKIFAATGNGINALNKVRKYY | -0.255
49 | HMSIQMPDLSITPVTDAKKKIESLQLQYKEVGEYNDSVIAGYVIRTEPASGSYLNEDEEVIIYVSKG | -0.246
50 | HMSISEFNYTEFNGLVEKGQVSEVTISGREIEGRLTSGESFKTYSPETDNSALVGDLLKNNVKINGKP | 0.12
51 | HMSITKDNLSIGTNIRISGFSDIGRIISIPNKGNQVQVQIGSAKMNIKINSIVEIIKEEKDFNKNISN | -0.102
52 | HMSIYMNIYNEFKKYIIANVYKYDDKLPSVRSIALEYGINPNTVQRAFQLLEDEGYIKTISKKGVYVNYR | -0.781
53 | HMSKAYLSVESNISGARVFVDGQKEGTTPLSDVLLSAGEHLILVKKQGYETYQKRVRFQKGRSMSLYVDLS | -0.159
54 | HMSKDQKKFFIEIVSIRGFGSQIGISILNKLSIPQIINAIKTQNKKEISSIPGIGQKMTERLILELNNKFK | -0.0747
55 | HMSKININTITESELKELPISTVKQKAIQDYLIDRGFISNIYDLLDIKEITSDDVSLLKKVVNVKLPY | -0.218
